From patent US20260209386A1 (MYTHIC THERAPEUTICS, published 2026)

B1: MYT11023 (antibody, V domains shown)
VH: EVQLVESGGGLVQPGGSLRLSCTASGFSLSSYAMGWVRQAPGKGLEWVGFINAGGNTYYANWAKGRFTISRDTSKNTVYLQMNSLRAEDTAVYFCARRYSRASGWYDLWGQGTLVTVSS
VL: EIVMTQSPSTLSASVGDRVIITCQASQSISSYLAWYQQKPGKAPKLLIYAASTLASGVPSRFSGSGSGAEFTLTISSLQPDDFATYYCQSYSYSSGIDYGDHFGQGTKLTVL
notes: IgG
B2: MYT11093 (antibody, V domains shown)
VH: EVQLVESGGGLVQPGGSLRLSCTASGLSLSSYWMSWVRQAPGKGLEWVGVISAGGNTYYANWAKGRFTISRDTSKNTVYLQMNSLRAEDTAVYFCARGDDGYTNAAYVSNLWGQGTLVTVSS
VL: EIVMTQSPSTLSASVGDRVIITCQASQSISSWLSWYQQKPGKAPKLLIYKASTLASGVPSRFSGSGSGAEFTLTISSLQPDDFATYYCQSYHDSTTIAFGQGTKLTVL
notes: IgG
B3: MYT11103 (antibody, V domains shown)
VH: EVQLVESGGGLVQPGGSLRLSCTASGHSLSTYAMSWVRQAPGKGLEWVGMIYINDNTYYASWAKGRFTISRDTSKNTVYLQMNSLRAEDTAVYFCARDIGISYYIGVSLWGQGTLVTVSS
VL: EIVMTQSPSTLSASVGDRVIITCQASQSIGTRLSWYQQKPGKAPKLLIYGASKLATGVPSRFSGSGSGAEFTLTISSLQPDDFATYYCLGEYSYTTTDGIAFGQGTKLTVL
notes: IgG
B4: MYT11115 (antibody, V domains shown)
VH: EVQLVESGGGLVQPGGSLRLSCTASGFSLSTYAMSWVRQAPGKGLEWVGMIYHNDNTYYASWAKGRFTISRDTSKNTVYLQMNSLRAEDTAVYFCARDIGISYYIGVSLWGQGTLVTVSS
VL: EIVMTQSPSTLSASVGDRVIITCQASQSIGTRLSWYQQKPGKAPKLLIYGASKLATGVPSRFSGSGSGAEFTLTISSLQPDDFATYYCLGEYSYTTTDGIAFGQGTKLTVL
notes: IgG
B5: MYT11151 (antibody, V domains shown)
VH: EVQLVESGGGLVQPGGSLRLSCTASGFSLSTYAMSWVRQAPGKGLEWVGMIYINDNTYYASWAKGRFTISRDTSKNTVYLQMNSLRAEDTAVYFCARDIGISYYIGVSLWGQGTLVTVSS
VL: EIVMTQSPSTLSASVGDRVIITCQASQSIHTRLSWYQQKPGKAPKLLIYGASKLATGVPSRFSGSGSGAEFTLTISSLQPDDFATYYCLGEYSYTTTDGIAFGQGTKLTVL
notes: IgG
B6: MYT11106 (antibody, V domains shown)
VH: EVQLVESGGGLVQPGGSLRLSCTASGFSLHTYAMSWVRQAPGKGLEWVGMIYINDNTYYASWAKGRFTISRDTSKNTVYLQMNSLRAEDTAVYFCARDIGISYYIGVSLWGQGTLVTVSS
VL: EIVMTQSPSTLSASVGDRVIITCQASQSIGTRLSWYQQKPGKAPKLLIYGASKLATGVPSRFSGSGSGAEFTLTISSLQPDDFATYYCLGEYSYTTTDGIAFGQGTKLTVL
notes: IgG
B7: MYT11108 (antibody, V domains shown)
VH: EVQLVESGGGLVQPGGSLRLSCTASGFSLSTHAMSWVRQAPGKGLEWVGMIYINDNTYYASWAKGRFTISRDTSKNTVYLQMNSLRAEDTAVYFCARDIGISYYIGVSLWGQGTLVTVSS
VL: EIVMTQSPSTLSASVGDRVIITCQASQSIGTRLSWYQQKPGKAPKLLIYGASKLATGVPSRFSGSGSGAEFTLTISSLQPDDFATYYCLGEYSYTTTDGIAFGQGTKLTVL
notes: IgG
B8: MYT11117 (antibody, V domains shown)
VH: EVQLVESGGGLVQPGGSLRLSCTASGFSLSTYAMSWVRQAPGKGLEWVGMIYINHNTYYASWAKGRFTISRDTSKNTVYLQMNSLRAEDTAVYFCARDIGISYYIGVSLWGQGTLVTVSS
VL: EIVMTQSPSTLSASVGDRVIITCQASQSIGTRLSWYQQKPGKAPKLLIYGASKLATGVPSRFSGSGSGAEFTLTISSLQPDDFATYYCLGEYSYTTTDGIAFGQGTKLTVL
notes: IgG
B9: MYT11134 (antibody, V domains shown)
VH: EVQLVESGGGLVQPGGSLRLSCTASGFSLSTYAMSWVRQAPGKGLEWVGMIYINDNTYYASWAKGRFTISRDTSKNTVYLQMNSLRAEDTAVYFCARDIGIHYYIGVSLWGQGTLVTVSS
VL: EIVMTQSPSTLSASVGDRVIITCQASQSIGTRLSWYQQKPGKAPKLLIYGASKLATGVPSRFSGSGSGAEFTLTISSLQPDDFATYYCLGEYSYTTTDGIAFGQGTKLTVL
notes: IgG
B10: MYT11120 (antibody, V domains shown)
VH: EVQLVESGGGLVQPGGSLRLSCTASGFSLSTYAMSWVRQAPGKGLEWVGMIYINDNTHYASWAKGRFTISRDTSKNTVYLQMNSLRAEDTAVYFCARDIGISYYIGVSLWGQGTLVTVSS
VL: EIVMTQSPSTLSASVGDRVIITCQASQSIGTRLSWYQQKPGKAPKLLIYGASKLATGVPSRFSGSGSGAEFTLTISSLQPDDFATYYCLGEYSYTTTDGIAFGQGTKLTVL
notes: IgG
B11: MYT11137 (antibody, V domains shown)
VH: EVQLVESGGGLVQPGGSLRLSCTASGFSLSTYAMSWVRQAPGKGLEWVGMIYINDNTYYASWAKGRFTISRDTSKNTVYLQMNSLRAEDTAVYFCARDIGISYYHGVSLWGQGTLVTVSS
VL: EIVMTQSPSTLSASVGDRVIITCQASQSIGTRLSWYQQKPGKAPKLLIYGASKLATGVPSRFSGSGSGAEFTLTISSLQPDDFATYYCLGEYSYTTTDGIAFGQGTKLTVL
notes: IgG
B12: MYT11136 (antibody, V domains shown)
VH: EVQLVESGGGLVQPGGSLRLSCTASGFSLSTYAMSWVRQAPGKGLEWVGMIYINDNTYYASWAKGRFTISRDTSKNTVYLQMNSLRAEDTAVYFCARDIGISYHIGVSLWGQGTLVTVSS
VL: EIVMTQSPSTLSASVGDRVIITCQASQSIGTRLSWYQQKPGKAPKLLIYGASKLATGVPSRFSGSGSGAEFTLTISSLQPDDFATYYCLGEYSYTTTDGIAFGQGTKLTVL
notes: IgG
B13: MYT11107 (antibody, V domains shown)
VH: EVQLVESGGGLVQPGGSLRLSCTASGFSLSHYAMSWVRQAPGKGLEWVGMIYINDNTYYASWAKGRFTISRDTSKNTVYLQMNSLRAEDTAVYFCARDIGISYYIGVSLWGQGTLVTVSS
VL: EIVMTQSPSTLSASVGDRVIITCQASQSIGTRLSWYQQKPGKAPKLLIYGASKLATGVPSRFSGSGSGAEFTLTISSLQPDDFATYYCLGEYSYTTTDGIAFGQGTKLTVL
notes: IgG
B14: MYT11150 (antibody, V domains shown)
VH: EVQLVESGGGLVQPGGSLRLSCTASGFSLSTYAMSWVRQAPGKGLEWVGMIYINDNTYYASWAKGRFTISRDTSKNTVYLQMNSLRAEDTAVYFCARDIGISYYIGVSLWGQGTLVTVSS
VL: EIVMTQSPSTLSASVGDRVIITCQASQSHGTRLSWYQQKPGKAPKLLIYGASKLATGVPSRFSGSGSGAEFTLTISSLQPDDFATYYCLGEYSYTTTDGIAFGQGTKLTVL
notes: IgG
B15: MYT11146 (antibody, V domains shown)
VH: EVQLVESGGGLVQPGGSLRLSCTASGFSLSTYAMSWVRQAPGKGLEWVGMIYINDNTYYASWAKGRFTISRDTSKNTVYLQMNSLRAEDTAVYFCARDIGISYYIGVSLWGQGTLVTVSS
VL: EIVMTQSPSTLSASVGDRVIITCQHSQSIGTRLSWYQQKPGKAPKLLIYGASKLATGVPSRFSGSGSGAEFTLTISSLQPDDFATYYCLGEYSYTTTDGIAFGQGTKLTVL
notes: IgG
B16: MYT11152 (antibody, V domains shown)
VH: EVQLVESGGGLVQPGGSLRLSCTASGFSLSTYAMSWVRQAPGKGLEWVGMIYINDNTYYASWAKGRFTISRDTSKNTVYLQMNSLRAEDTAVYFCARDIGISYYIGVSLWGQGTLVTVSS
VL: EIVMTQSPSTLSASVGDRVIITCQASQSIGHRLSWYQQKPGKAPKLLIYGASKLATGVPSRFSGSGSGAEFTLTISSLQPDDFATYYCLGEYSYTTTDGIAFGQGTKLTVL
notes: IgG
B17: MYT11153 (antibody, V domains shown)
VH: EVQLVESGGGLVQPGGSLRLSCTASGFSLSTYAMSWVRQAPGKGLEWVGMIYINDNTYYASWAKGRFTISRDTSKNTVYLQMNSLRAEDTAVYFCARDIGISYYIGVSLWGQGTLVTVSS
VL: EIVMTQSPSTLSASVGDRVIITCQASQSIGTHLSWYQQKPGKAPKLLIYGASKLATGVPSRFSGSGSGAEFTLTISSLQPDDFATYYCLGEYSYTTTDGIAFGQGTKLTVL
notes: IgG
B18: MYT11105 (antibody, V domains shown)
VH: EVQLVESGGGLVQPGGSLRLSCTASGFSHSTYAMSWVRQAPGKGLEWVGMIYINDNTYYASWAKGRFTISRDTSKNTVYLQMNSLRAEDTAVYFCARDIGISYYIGVSLWGQGTLVTVSS
VL: EIVMTQSPSTLSASVGDRVIITCQASQSIGTRLSWYQQKPGKAPKLLIYGASKLATGVPSRFSGSGSGAEFTLTISSLQPDDFATYYCLGEYSYTTTDGIAFGQGTKLTVL
notes: IgG

target: T1, Human PTK7/CCK4 Protein, His Tag, Acro Biosystems PT7-H52H3 (human, UniProt Q13308 31-704); test: BLI, antibody on anti-human Fc sensor, 50 nM PTK7
T1 construct: bought protein; also called Human PTK7 Protein, His Tag, Acro Biosystems; not shown: His tag
T1 sequence: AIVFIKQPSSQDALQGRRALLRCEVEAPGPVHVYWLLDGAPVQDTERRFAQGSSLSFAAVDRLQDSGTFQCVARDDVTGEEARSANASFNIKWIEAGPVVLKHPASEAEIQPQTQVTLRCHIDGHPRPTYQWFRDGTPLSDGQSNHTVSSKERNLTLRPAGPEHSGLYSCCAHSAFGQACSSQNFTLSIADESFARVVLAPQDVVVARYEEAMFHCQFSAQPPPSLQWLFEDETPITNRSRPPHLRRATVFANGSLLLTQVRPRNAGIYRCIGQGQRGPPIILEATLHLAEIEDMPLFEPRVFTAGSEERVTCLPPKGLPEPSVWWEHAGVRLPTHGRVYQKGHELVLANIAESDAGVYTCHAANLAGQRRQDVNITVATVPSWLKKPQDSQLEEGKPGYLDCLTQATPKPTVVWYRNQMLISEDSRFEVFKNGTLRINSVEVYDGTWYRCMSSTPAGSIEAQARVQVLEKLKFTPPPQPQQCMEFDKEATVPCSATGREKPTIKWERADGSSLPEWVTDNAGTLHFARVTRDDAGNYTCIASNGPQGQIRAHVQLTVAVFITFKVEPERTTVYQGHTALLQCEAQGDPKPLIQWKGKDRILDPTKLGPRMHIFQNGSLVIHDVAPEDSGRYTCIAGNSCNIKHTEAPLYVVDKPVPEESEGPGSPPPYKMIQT

Binding result, binds:
B1, B2, B3, B4, B5, B6, B7, B8, B9, B10, B11, B12, B13, B14, B15, B16, B17, B18
